Experimental data as given in US7498127 (dated 2009).

Key:
[1] = target: T1, GST binding HB-EGF remaining fragment (UniProt P08515 1-218 = GST; Q99075 185-208); test: GST pull-down, anti-FLAG immunoblot
T1 construct: also called remaining fragments of HB-EGF
Method: Test Method (1) In order to specify a region of PLZF protein that interacts with a remaining fragment, GST pull-down assay was performed.
(2) GST, GST binding HB-LGF remaining fragments that were expressed and isolated with *E. coli* BL21 strain according to the GST pull-down assay standard protocol were used. The fragments were bound to Glutathione Sepharose beads, and then cell lysates containing various FLAG-tagged PLZF protein derivatives were incubated with 20 µl of the beads at 4° C. for two hours. After washing with water, the bound protein was analyzed by immunoblotting using anti-FLAG antibody (referring to the peptide sold under the trademark FLAG by Sigma Aldrich Co.).

[2] = target: T1, GST binding HB-EGF remaining fragment; test: GST pull-down, same method as Test Example 1

T1 sequence (P08515 1-218, tags or fused parts left off): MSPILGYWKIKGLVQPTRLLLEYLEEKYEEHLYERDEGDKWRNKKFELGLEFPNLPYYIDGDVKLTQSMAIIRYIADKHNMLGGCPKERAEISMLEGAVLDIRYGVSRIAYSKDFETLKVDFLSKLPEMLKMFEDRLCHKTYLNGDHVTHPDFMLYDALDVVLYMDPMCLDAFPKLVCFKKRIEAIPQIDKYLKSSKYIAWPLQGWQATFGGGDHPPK

binding result [1] | binding result [2] | Binder
no binding |  | PLZF protein derivative consisting only of a region of Zn6 to Zn7 (other, UniProt Q05516 546-596, looked up, domain: Zn6 to Zn7; also called FLAG-tagged PLZF protein derivative 7); not shown: FLAG synthetic octapeptide tag (Sigma-Aldrich)) YECEFCGSCFRDESTLKSHKRIHTGEKPYECNGCGKKFSLKHQLETHYRVH
 | no binding | Bcl-6 protein derivative consisting only of a region of Zn1 to Zn4 (other, UniProt P41182 518-624, looked up, not shown: small tags and cut ends, domain: Zn1 to Zn4; also called Bcl-6 protein derivative 8)) FFCNECDCRFSEEASLKRHTLQTHSDKPYKCDRCQASFRYKGNLASHKTVHTGEKPYRCNICGAQFNRPANLKTHTRIHSGEKPYKCETCGARFVQVAHLRAHVLIH
no binding |  | PLZF protein derivative consisting only of the BTB region (other, UniProt Q05516 1-132, looked up, domain: BTB region; also called FLAG-tagged PLZF protein derivative 6); not shown: FLAG synthetic octapeptide tag (Sigma-Aldrich)) MDLTKMGMIQLQNPSHPTGLLCKANQMRLAGTLCDVVIMVDSQEFHAHRTVLACTSKMFEILFHRNSQHYTLDFLSPKTFQQILEYAYTATLQAKAEDLDDLLYAAEILEIEYLEEQCLKMLETIQASDDND
